From patent US20170190774A1 (REPROPHARM, published 2017)
Like-named read-outs stand apart in the source and are kept apart here. Each block holds one binder with its values, some of them ahead of it.

Experiments:
[1] = biological target: T1, human FSH Gonal-F (recombinant human FSH, Merck Serono) (human, UniProt P01215 25-116; P01225 19-129); assay: ELISA saturation binding, one site-specific binding fit in GraphPad Prism (estimate)
T1 construct: mature; Recombinant pharmaceutical preparation; also called hFSH (Gonal F); hFSH Gonal-F
Experimental: (§1) The specificity of the antibodies and of the scFv thereof was studied by the ELISA technique. Each hormone evaluated was prepared at the concentration of 10 μg/ml in a 0.1M sodium carbonate buffer, pH 9.6, and distributed in a proportion of 100 μl per well on an ELISA plate. The adsorption time was 18 hours at +4° C. After five washes, the wells were treated with 100 μl of PBS supplemented with 0.1% Tween and 1% BSA for 45 minutes at 37° C., then each antibody or scFv was distributed in a proportion of 100 μl/well and incubated for one hour at 37° C. On each hormone evaluated, the antibodies and the scFvs were distributed at various concentrations according to a range of 10 to 250 μg/ml for the antibodies and of 10 to 150 or 200 μg/ml for the scFvs.

[2] = biological target: T2, human FSH Puregon (recombinant human FSH, Merck Schering-Plough) (human, UniProt P01215 25-116; P01225 19-129); assay: as above
T2 construct: mature; Recombinant pharmaceutical preparation; also called hFSH (Puregon); hFSH Puregon
Experimental: as §1

[3] = biological target: T3, human FSH Fostimon (purified FSH extracted from urine, Laboratoire Genévrier) (human, UniProt P01215 25-116; P01225 19-129); assay: as above
T3 construct: mature; Extracted pharmaceutical preparation; also called hFSH (Fostimon); hFSH Fostimon
Experimental: as §1

[4] = biological target: T4, ovine LH (oLH) (ovine, UniProt P01218 25-120; P01231 21-141); assay: as above
Experimental: as §1

[5] = biological target: T5, porcine LH (pLH) (porcine, UniProt P01219 25-120; P01232 21-141); assay: as above
Experimental: as §1

[6] = biological target: T6, bovine LH (bLH) (bovine, UniProt P01217 25-120; P04651 21-141); assay: as above
Experimental: as §1

[7] = biological target: T7, equine chorionic gonadotropin (eCG) (equine, UniProt P01220 25-120; P08751 21-169); assay: as above
T7 construct: mature; Alpha/beta dimer
Experimental: as §1

[8] = biological target: T8, hCG Chorulon (human chorionic gonadotropin extracted from urine, MSD) (human, UniProt P01215 25-116; P0DN86 21-165); assay: as above
T8 construct: mature; Extracted veterinary preparation
Experimental: as §1

[9] = biological target: T9, hCG Endo 5000 (purified human chorionic gonadotropin, Schering-Plough) (human, UniProt P01215 25-116; P0DN86 21-165); assay: as above
T9 construct: mature; Extracted pharmaceutical preparation
Experimental: as §1

[10] = biological target: T10, ovine FSH (oFSH) (ovine, UniProt P01218 25-120; P01227 20-129); assay: as above
Experimental: as §1

[11] = biological target: T11, porcine FSH (pFSH) (porcine, UniProt P01219 25-120; P01228 21-129); assay: as above
Experimental: as §1

[12] = biological target: T1, human FSH Gonal-F (recombinant human …); assay: ELISA, hormone adsorbed on the plate, scFv titrated, anti-His HRP; (A/B)x100 relative to oFSH
Experimental: as §1
(§2) After five washes, a secondary antibody coupled to peroxidase (HRP) was distributed in a proportion of 100 μl/well and incubated for one hour at 37° C. […] For the scFvs, an anti-His Tag HRP (Ref. R93125 Life Technologies, France) was used. […] After the reaction had been stopped with 1M H₂SO₄ (50 μl/well), the strength of the colored reaction (optical density) was measured using a spectrophotometer for ELISA plates.
(§3) The percentage of cross reaction was calculated conventionally by comparing the dose-response curves obtained with the concentration range of the antibody or of the scFv.

[13] = biological target: T2, human FSH Puregon (recombinant human …); assay: as above
Experimental: as §1, §2, §3

[14] = biological target: T3, human FSH Fostimon (purified FSH …); assay: as above
Experimental: as §1, §2, §3

[15] = biological target: T4, ovine LH (oLH); assay: as above
Experimental: as §1, §2, §3

[16] = biological target: T5, porcine LH (pLH); assay: as above
Experimental: as §1, §2, §3

[17] = biological target: T6, bovine LH (bLH); assay: as above
Experimental: as §1, §2, §3

[18] = biological target: T11, porcine FSH (pFSH); assay: as above
Experimental: as §1, §2, §3

[19] = biological target: T10, ovine FSH (oFSH); assay: ELISA saturation binding, one site-specific binding fit in GraphPad Prism (estimate); differs from Table 25
[20] = biological target: T1, human FSH Gonal-F (recombinant human …); assay: cell-based or functional assay
[21] = biological target: T10, ovine FSH (oFSH); assay: cell-based or functional assay
[22] = biological target: T12, α-subunit of ovine FSH (ovine, UniProt P01218 25-120); assay: ELISA, subunit adsorbed on the plate, antibody titrated; (A/B)x100 relative to oFSH
[23] = biological target: T13, β-subunit of ovine FSH (ovine, UniProt P01227 20-129); assay: as above
T13 construct: mature; Isolated subunit adsorbed on the ELISA plate; also called β-s.u. oFSH; β-oFSH

[24] = biological target: T14, β-subunit of human FSH (human, UniProt P01225 19-129); assay: as above
T14 construct: mature; Isolated subunit adsorbed on the ELISA plate; also called β-s.u. hFSH

[25] = biological target: T1, human FSH Gonal-F (recombinant human …); assay: ELISA, hormone adsorbed on the plate, antibody titrated; (A/B)x100 relative to oFSH
Experimental: as §1, §2, §3

[26] = biological target: T2, human FSH Puregon (recombinant human …); assay: as above
Experimental: as §1, §2, §3

[27] = biological target: T3, human FSH Fostimon (purified FSH …); assay: as above
Experimental: as §1, §2, §3

[28] = biological target: T11, porcine FSH (pFSH); assay: as above
Experimental: as §1, §2, §3

[29] = biological target: T12, α-subunit of ovine FSH; assay: ELISA, subunit adsorbed on the plate, antibody titrated; (A/B)x100 relative to oFSH; remark: listed apart in the source
Experimental: as §1, §2, §3

[30] = biological target: T13, β-subunit of ovine FSH; assay: as above; remark: listed apart in the source
Experimental: as §1, §2, §3

[31] = biological target: T14, β-subunit of human FSH; assay: as above; remark: listed apart in the source
Experimental: as §1, §2, §3

T3 sequence (P01215 25-116, chain 1 of 2): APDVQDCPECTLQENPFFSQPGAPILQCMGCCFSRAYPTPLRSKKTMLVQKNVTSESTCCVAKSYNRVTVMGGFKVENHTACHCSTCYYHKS
T3 sequence (P01225 19-129, chain 2 of 2): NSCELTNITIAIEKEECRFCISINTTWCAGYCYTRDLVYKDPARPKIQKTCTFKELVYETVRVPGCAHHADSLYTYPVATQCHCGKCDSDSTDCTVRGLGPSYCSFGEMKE
T1 sequence (P01215 25-116, chain 1 of 2): as the sequence (P01215 25-116, chain 1 of 2) above
T1 sequence (P01225 19-129, chain 2 of 2): as the sequence (P01225 19-129, chain 2 of 2) above
T2 sequence (P01215 25-116, chain 1 of 2): as the sequence (P01215 25-116, chain 1 of 2) above
T2 sequence (P01225 19-129, chain 2 of 2): as the sequence (P01225 19-129, chain 2 of 2) above
T14 sequence (P01225 19-129): as the sequence (P01225 19-129, chain 2 of 2) above
T7 sequence (P01220 25-120, chain 1 of 2): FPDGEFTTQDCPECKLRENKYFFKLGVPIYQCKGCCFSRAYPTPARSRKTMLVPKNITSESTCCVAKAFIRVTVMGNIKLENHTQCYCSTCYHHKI
T7 sequence (P08751 21-169, chain 2 of 2): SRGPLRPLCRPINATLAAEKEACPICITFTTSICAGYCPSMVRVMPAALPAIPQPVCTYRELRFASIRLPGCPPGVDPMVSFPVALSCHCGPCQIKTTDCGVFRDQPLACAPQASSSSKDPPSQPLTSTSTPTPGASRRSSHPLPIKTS
T9 sequence (P01215 25-116, chain 1 of 2, other chains not shown): as the sequence (P01215 25-116, chain 1 of 2) above
T8 sequence (P01215 25-116, chain 1 of 2, other chains not shown): as the sequence (P01215 25-116, chain 1 of 2) above

- Kd [1]: 1820 nM
- Kd [2]: 11500 nM
- Kd [3]: 1590 nM
- Kd [4]: 1550 nM
- Kd [5]: 2470 nM
- Kd [6]: 1940 nM
- Kd [8]: 1470 nM
- Kd [9]: 2090 nM
- Kd [10]: 2850 nM
- Kd [11]: 5220 nM
- cross reaction [12]: 32%
- cross reaction [13]: 67%
- cross reaction [14]: 30%
- cross reaction [15]: 68%
- cross reaction [16]: 63%
- cross reaction [17]: 52%
- cross reaction [18]: 175%
- Kd [19]: 7510 nM
B1: CH10 scFv (scFv)
scFv: QVQLQQSGGGLVQPKGSLKLSCAASGFTFNTYAMNWVRQAPGKGLEWVARIRSKSNNYATYYADSVKDRFTISRDDSQSMLYLQMNNLKTEDTAMYYCVRQDYYGSSYFDYWGQGTTLTVSSGGGGSGGGGSGGGGSDIQMTQTPATLSVTPGDRVSLSCRASQSISDYLHWYQQKSHESPRLLIKYASQSISGIPSRFSGSGSGSDFTLSINSVEPEDVGVYYCQNGHSFPYTFGGGTKLEIKHHHHHH
notes: VH-(Gly4Ser)3-VL-His6, made in the E. coli periplasm; also called scFv derived from the CH10 antibody
- Kd [7]: 1970 nM

- EC50 of the hFSH/CA5 complex, cAMP (GloSensor), HEK 293 cells with the human FSH receptor [20]: 0.136 nM
- EC50 of the oFSH/CA5 complex, cAMP (GloSensor), HEK 293 cells with the human FSH receptor [21]: 0.283 nM
- amplification of cAMP secretion, bovine granulosa cells [21]: 1.3 fold
- cross reaction [22]: 6%
- cross reaction [23]: 80%
- cross reaction [24]: 50%
- cross reaction [25]: 128%
- cross reaction [26]: 70%
- cross reaction [27]: 76%
- cross reaction [28]: 134%
B2: CA5 monoclonal antibody (antibody, IgG2a, V domains shown)
VH: EVKLVESGGGLVQPGGSLRLSCATSGFTFSDFYMEWVRQPPGKRLEWIAASRNKAKDYTTEYSASVKGRFIVSRDTSQSILYLQMNALRAEDTAIYFCARDARFAYWGQGTLVTVSA
VL: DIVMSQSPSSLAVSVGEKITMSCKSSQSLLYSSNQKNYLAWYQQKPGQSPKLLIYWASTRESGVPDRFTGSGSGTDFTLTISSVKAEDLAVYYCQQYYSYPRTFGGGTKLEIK
notes: also called CA5 antibody; CA5 ligand

- EC50 of the hFSH/CH10 complex, cAMP (GloSensor), HEK 293 cells with the human FSH receptor [20]: 0.317 nM
- amplification of cAMP secretion, bovine granulosa cells [21]: 5.5 fold
- cross reaction [29]: 43%
- cross reaction [30]: 88%
- cross reaction [31]: 40%
- cross reaction [25]: 50%
- cross reaction [26]: 71%
- cross reaction [27]: 100%
- cross reaction [28]: 24%
B3: CH10 monoclonal antibody (antibody, IgM, V domains shown)
VH: EVQLVESGGGLVQPKGSLKLSCAASGFTFNTYAMNWVRQAPGKGLEWVARIRSKSNNYATYYADSVKDRFTISRDDSQSMLYLQMNNLKTEDTAMYYCVRQDYYGSSYFDYWGQGTTLTVSS
VL: DIVMTQSPATLSVTPGDRVSLSCRASQSISDYLHWYQQKSHESPRLLIKYASQSISGIPSRFSGSGSGSDFTLSINSVEPEDVGVYYCQNGHSFPYTFGGGTKLEIK
notes: also called CH10 antibody; CH10 ligand
